In the DeepSol protein solubility set:

Assay: soluble on expression in E. coli; label from the status in PepcDB or PDB records

Soluble on expression in E. coli, not soluble:
RLPFMAQYDRLGLTRSNTSCHNNTGKQCLWGDTEKQPELLVLGDSHADHYKTFFDAVGKKEKWSATMVSADACAYVEGYASRVFQNWAACRAVYRYAEEHLPRYSKVVLAMRWGSQMPENSRSLAYDAGFFQKFDRMLHKLSSEKQAVYLMADNLASSYNVQRAYILSSRIPGYRQALRPDDESTLKANARIRELAAKYPNVYIIDAAAYIPADFQIGGLPVYSDKDHINPYGGTELAKRFSEKQRFLDTRHNH
MALRFITAEEAAEFVHHNDNVGFSGFTPAGNPKVVPAAIAKRAIAAHEKGNPFKIGMFTGASTGARLDGVLAQADAVKFRTPYQSNKDLRNLINNGSTSYFDLHLSTLAQDLRYGFYGKVDVAIIEVADVTEDGKILPTTGVGILPTICRLADRIIVELNDKHPKEIMGMHDLCEPLDPPARRELPVYTPSDRIGKPYVQVDPAKIVGVVRTSEPNDESDFAPLDPVTQAIGDNVAAFLVSEMKAGRIPKDFLPLQSGVGNVANAVLGALGDNPDIPAFNMYTEVIQDAVIALMKKGRIKFASGCSLSVSRSVIQDIYANLDFFKDKILLRPQEYSNNPEIVRRLGVITINTALEADIFGNINSTHVSGTRMMNGIGGSGDFTRNSYVSIFTTPSVMKDGKISSFVPMVAHHDHSEHSVKVIISEWGVADLRGKNPRERAHEIIDKCVHPDYRPLLRQYLELGVKGQTPQNLDCCFAFHQELAKSGDMRNVRWEDYMK
MGSDKIHHHHHHMKEILTVTELNSYIANLLDSDPFLGQLWLRGEISGFRLYQQSGHMYFTLKDEDSTISAVMFKSRARGLKFKPKDGMEVLLRASVSVFARQGKYQLYVEEMQPYGIGGLFLYLEELKKKLAAKGYFAPERKKAIPAFVQRVGIVTSQDGAALRDICRILKQRHPGVEVVLAHSSVQGSEAPGELAEGLRLLNSYAEVELIIIGRGGGSYEDLMAFNSELVVQAIYESNIPVISAVGHEVDFTLADLVADLRAATPSQAASLAVADMQALSRQLDNYQQRLLRAMQRKLLYYTEIIDRLMMKRIWKQPRSLLHMREELLSQLEKSLSRGMAEIFREKKMKLSMNMAALDSLSPLKIMERGYVLLQKEGRIIRDEQQVQIGDRLEVAMRHADLEIEVIKKERVKRWKS
MANNLMSGIIAQQPPIEAESDVHVVKSRLEWGEPAFTILDVRDRSIYNEGHIMGAMSMPIDELTERAAISLDTSRDIYIYGTNDGQTTQAAQILRSAGFKNVSQLKGGFGAWKAIGGATEGIIESRTPAAADDYNVVSRIQNHIETQQK
MGSSHHHHHHGGTGENLYFQGGSGGTCPSISQSEVGIVETCGRFSYTADPGIHCLWCGSVLVRRVTLRLQEYELKVESKTKDNVFVTLSLVIQYQVSPDKLAEVYYACDSSLQCMRDYVLNSIRAKIPLYKLEALYVERGTISQQLKDEVDAIIGTYGIEIVSALISDIDPGAEITKAMNEVQKFQRLRVASVDAAETEKLKRVRAAEARCEARRLSGEGLAEQRKAIVAGLMHSIEDVQSEVRDLTSNDATNMLLMNQYYDTLQAIAANSSSSVIMLESNGGLEKVAAQLRQGVTHMMR
MGSDKIHHHHHHMAKFDNHPTVRWWREQSTNNPKTSTVALNSDSLRTLCLDAGADDVGFVEIYRPAIADQHAEILAVFPPTKTLISFVCCMNRESVRTPARSIANLEFHANYDHADEVARNLVKAFAQIGVRALNPSVAFPMEMDRYPDKKAWIISHKPVAVEAGLGHIGIHRNVIHPKFGNFIALGTVLIDTEVTEYAHPINYNPCIECKLCVAACPVGAIGADGSFSFSACYTHNYREFMGGFTDWTETIADSKSASDYRKKVSASESASMWQSLSFKPNYKAAYCIAACPAGEDVIAPFLSDRKAFIKDVVKPLQDKTETIYVVPGSDAENYVVKHFPNKTVKLVSSGIRPQSIQGFLFGLPLLFQRNQSEGLSAIYHFTFTGSESRRATVTIQNKMVRVQEGHLGKANISVTADSKTWLGFLGKEQNLIWALLRCKIRVSGSLKLLQAFGKCFPTCNIH
MRYERIKYILLFSLMHLVYSNSTFESNPEVRNKSNIYDLPPLLDVTSVNEETPIVKRPINERIENLEFDPRFEIDQAKLEISEDKLGSGFFGEVCYGLLSMRTSNTETDTLQKLSVAVKQSNDPTQENQEKMIEDETKLMCAIGRNPNILAIIGAVTANSGSARNLLIVEFVECGDLLKFLEEKKSIFKDELVYEKNGYLLPKSIRRKTYMFNENEDDVIEESLDSLCTSDLLSFSYQIAEGMEYLASIPCVHRDLALRNVLLNKNKTIRIADFGLARKYQVDGYYRITKGVGTPMPARWMAPEVMREGKCTEKSDVWSYGVSLYEMFSLGELPYSNVSNSDVFEHVVQGNQLPMPQYCHPKMYDRMKQFWNFDATFRPSFSKCVEFFEEHLSVSATNLLEQIQKTLKSEAERQSKLEDWIRRD
MNERERVLAIKGGDHQAFIDLYNEYWSQVYDFSRLYIATIADAEEIVQDVFVKLWESRHLLKEDENIKGFLFIVTRNIVFNKNKKRVNENLFKTSVLVAYGNEGYYNSTTVEEDYCASQLKIFIDRLINSLPEQQRKCFLLSREESLSYKEIAERLGISQKTVEIHMGKALKFLKDKVKRGWEILLSLLSF
MSNHIDRDVINALIAGHFADPFSVLGMHRTDAGLEVRALLPDATDVWVIEPKTGRKVGKLECLDSRGFFSGVLPRRKNAFRYQLAVTWHGQQNLIDDPYRFGPLLQ
MGVITDDVTIAQQALTHYDVSDNASLRLLNLSENATYLVEDGEHQSILRVHRQDYHQPHEIESELDWLAALRTDSDVTVPTVVPARDGRRVVTVDPADSDAVPRHVVHFEMVGGAEPDEESLTLDDFQTLGRITASLHEHSQRWTRPAGFGRFSWDWEHCLGDTPRWGRWQDAEGVGASETALLTRAQDLLHRKLEEYGSGPDRYGLIHADLRLANLLVDSSTPQRTITVIDFDDCGFGWYFYDFGTAVSFIEHDPRLGEWQESWVAGYRSRRELPAADEAMLPSFVFLRRLLLLAWMGSHTHSRESATKAISYAAGSCALAERYLSSDGLRLT
MGSDKIHHHHHHKNTDLVAEDSICFPIDEHTYYASKSIFQFEENGHEYLSFLDAEYSQKINIYDIKNQKLIKTILLQKEGPNGMNVLSGCHPLNLNHFIITSWNGTFSLVNDKGEIEKKFDFWEKGVNFQEFDHISFSSYSYKPAIIKDSILYFSQSFLKHPRKKSDWNKIPMFAFANLNTGKTGWSELRYPLIFNKDEDFKNVKLYDPEICYTYTGKDVVISLGQYDSIMVSSDFKHKISYNAKSRYLAHAYPHLQDGQIDLFKNIQIQGKLPHYSHLMYDKYRKVFYRFALMPDDNIKPFSNNPHQSFSIIILNKDYEIIGETKFPGNTYTHHLCFVGKKGLYISENNENNPQFDENKLVFRCFTLQDRKK
MGSDKIHHHHHHMQLPFIAVDYVISVGLCAASTNPSQDKRIKKITVLAVSGKGDLPISFIENQALLDEAAMLTCMAYVDLNPIRAQLADTPEQSDHTSIQLRIRAALKGEQPKNLLPFIVNERDNQPNGIAFLLSDYLELVDDTGRIIRSDKRGAISENSAKLLARLNIPHDNWLKLTTEFGKLFRGPVGTLQELTDYCEHLEKRRRHFAKCCLHFHSN

Soluble on expression in E. coli, soluble:
MAGAAAAVAAGAAAGAAAAAVSVAAPGRASAPPPPPPVYCVCRQPYDVNRFMIECDICKDWFHGSCVGVEEHHAVDIDLYHCPNCAVLHGSSLMKKRRNWHRHDYTEIDDGSKPVQAGTRTFIKELRSRVFPSADEIIIKMHGSQLTQRYLEKHGFDVPIMVPKLDDLGLRLPSPTFSVMDVERYVGGDKVIDVIDVARQADSKMTLHNYVKYFMNPNRPKVLNVISLEFSDTKMSELVEVPDIAKKLSWVENYWPDDSVFPKPFVQKYCLMGVQDSYTDFHIDFGGTSVWYHVLWGEKIFYLIKPTDENLARYESWSSSVTQSEVFFGDKVDKCYKCVVKQGHTLFVPTGWIHAVLTSQDCMAFGGNFLHNLNIGMQLRCYEMEKRLKTPDLFKFPFFEAICWFVAKNLLETLKELREDGFQPQTYLVQGVKALHTALKLWMKKELVSEHAFEIPDNVRPGHLIKELSKVIRAIEEENGKPVKSQGI
GQANHPTAAVVTEKQQMLEQHLQDVRKRVQDLEQKMKVVENLQDDFDFNYKTLKSQGDMQDLNGNNQSVTRQKMQQLEQMLTALDQMRRSIVSELAGLLSAMEYVQKTLTDEELADWKRRQQIACIGGPPNICLDRLENWITSLAESQLQTRQQIKKLEELQQKVSYKGDPIVQHRPMLEERIVELFRNLMKSAFVVERQPCMPMHPDRPLVIKTGVQFTTKVRLLVKFPELNYQLKIKVCIDKDSGDVAALRGSRKFNILGTNTKVMNMEESNNGSLSAEFKHLTLREQRCGNGGRANCDASLIVTEELHLITFETEVYHQGLKIDLETHSLPVVVISNICQMPNAWASILWYNMLTNNPKNVNFFTKPPIGTWDQVAEVLSWQFSSTTKRGLSIEQLTTLAEKLLGPGVNYSGCQITWAKFCKENMAGKGFSFWVWLDNIIDLVKKYILALWNEGYIMGFISKERERAILSTKPPGTFLLRFSESSKEGGVTFTWVEKDISGKTQIQSVEPYTKQQLNNMSFAEIIMGYKIMDATNILVSPLVYLYPDIPKEEAFGKYCR
MSLRVLFCSSEIYPYAKTGGLADFSFCLIKYLKKYGVKVKGVMPYYKTLKAENLRKTDKGVTLNLNGKDYTFEVYESEDCYFLRNDELFGRDYIYGPPGWGYEDNDIRFGGFSRAVSELISTGQLEADVVHANDWQTALIPLFLKEVFKTPVKTVFTIHNLAYQGLFPKETVERVGIPPYLFHMEAVEFWGLVNFMKGGIVFSDLITTVSPTYAKEIQTQEYGYGLEGVLKKYSYKLRGILNGIDYEVWNPEKDKYIYQNYSLRNYSKKFKNKEFLSKELGIEAEKPLISFINRFTHQKGVELILNCAEEMSKLNANFVFLGTGEYENAFLDVSKIYKNFKVFAEFNEGFARKLYASSDFILMPSYFEPCGLTQMIGMRYGCVPIVRKTGGLRDTVKDISEGGYGITFEEPSKETFLCSLKRAIELYENAKKFRNSVKIVMSLDFSCDRMTKEYIECYEEVQSHQEGHHHHHH
GKDDDNVETGAFDPSKPVAISDFTPKEGGAYQKLLIYGENFGTDVSKVKVKIGGKDAIVINVKSTYVYCFVPSGAFSGEIEITVGEGENAVTTTASTTFSYEKKMVVGTLCGYRNNRDDQGWRDGPFDGPEGVKCCGFSDNGRLAFDPLNKDHLYICYDGHKAIQLIDLKNRMLSSPLNINTIPTNRIRSIAFNKKIEGYADEAEYMIVAIDYDGKGDESPSVYIIKRNADGTFDDRSDIQLIAAYKQCNGATIHPINGELYFNSYEKGQVFRLDLVDYFKTIKNGGSWDPIVKNNPNTFKQLFTIADPSWEFQIFIHPTGKYAYFGVINNHYFMRSDYDEIKKEFITPYNFVGGYKQSGYRDDVGTEARMNNPCQGVFVKNPDYTGEEEYDFYFVDRLNFCVRKVTPEGIVSTYAGRGASTSLADGNQWGTDDGDLREVARFRDVSGLVYDDVKEMFYVHDQVGHTIRTISMEQEENVAGDENIPEDESTVESNE
DIQMNQSPSSLSASLGDTITITCHASQNINVWLNWFQQKPGSIPKLLIYMASNLHTGVPSRFSGSGSGTGFTLTISSLQPEDIATYYCQQGQSFPLTFGGGTKLEIKRADAAPTVSIFPPSSEQLTSGGASVVCFLNNFYPKDINVKWKIDGSERQNGVLNSWTDQDSKDSTYSMSSTLTLTKDEYERHNSYTCEATHKTSTSPIVKSFNRN
MSLGDKPLQTVLHDEHYGGLDFSLGDSKYSGELEYNKSYMVNFSVNLPAEGSVKVAKAYVYWVWSKKDLEGIYPQFNASIINSETTAPLPKGHMYTDTKGFVSRYDYFSGMNTYDLSGKISKSGNYSISLVNTDKNGSTFCVQGIGLLLVYEDPKSPAIEYWINEGCDMLYADYGITPEVATTTTYFKGDIDPDNVTDARLITVSPSGGYSSGREARNKLFFNEETRSIPVLGDIVQLLFGSGKVWENVYQTNETVQIALDEKPVADYLEPTENFASIQDNGDYLLATNAILVLKFKGPESSETKGSEGHHHHHH
